Legend:
human 4-1BB-His protein = biological target: T1, human 4-1BB-His protein (human, UniProt Q07011 24-186); test: ELISA, coated human 4-1BB-His, detection with anti-human IgG-HRP, OD450
T1 construct: not shown: His tag

[1] = biological target: 4-1BB expressed on cells (HEK293-4-1BB, 4-1BB-Jurkat, GloResponse NFκB-luc2/4-1BB Jurkat) (UniProt Q07011); test: Flow cytometry on HEK293-4-1BB cells, PE anti-human IgG, MFI
[2] = biological target: T2, 4-1BB expressed on cells (HEK293-4-1BB, 4-1BB-Jurkat, GloResponse NFκB-luc2/4-1BB Jurkat) (UniProt Q07011 24-255, limits assumed); test: as above
T2 construct: whole, on cells; also called HEK293 expressed 4-1BB; HEK293-4-1BB cells
T2 sequence (Q07011 24-255 limits assumed): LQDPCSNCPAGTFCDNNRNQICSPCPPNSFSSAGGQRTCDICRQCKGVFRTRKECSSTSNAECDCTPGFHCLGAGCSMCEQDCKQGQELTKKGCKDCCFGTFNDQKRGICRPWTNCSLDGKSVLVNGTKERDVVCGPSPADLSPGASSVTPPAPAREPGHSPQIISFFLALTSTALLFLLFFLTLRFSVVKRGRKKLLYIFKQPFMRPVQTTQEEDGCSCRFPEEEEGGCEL
Protocol: To evaluate the antigen binding property, the anti-CLDN18.2-4-1BB antibodies were analyzed for their binding to HEK293 expressed 4-1BB by FACS. A total number of 1×10⁵ HEK293-4-1BB cells in each well were incubated with serial diluted antibodies for 30 minutes at 4° C. in FACS buffer (2% FBS in PBS). After wash by FACS buffer, PE conjugated-anti-human IgG antibody was added to each well and incubated at 4° C. for 30 minutes. After wash, MFI of PE was evaluated by FACS Caliber.

human 4-1BB-Fc protein = biological target: T3, human 4-1BB-Fc protein (human, UniProt Q07011 24-186); test: ELISA, coated human 4-1BB-Fc
T3 construct: not shown: Fc part
T3 sequence (Q07011 24-186 limits assumed): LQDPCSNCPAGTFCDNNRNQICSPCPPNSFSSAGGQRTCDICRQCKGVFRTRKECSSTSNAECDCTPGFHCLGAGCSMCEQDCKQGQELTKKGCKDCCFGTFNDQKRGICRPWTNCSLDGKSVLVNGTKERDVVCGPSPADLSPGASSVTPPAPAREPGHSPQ

[3] = biological target: human 4-1BB-biotin protein (human, UniProt Q07011 24-186, limits assumed); test: Dual antigen capture ELISA: coated CLDN18.2 VLP, antibody titrated, then human 4-1BB-biotin at 1 ug/ml and streptavidin-HRP, OD450
Chain of human 4-1BB-biotin protein (Q07011 24-186 limits assumed): as above

T1 sequence (Q07011 24-186 limits assumed): as above
Chain of 4-1BB expressed on cells (HEK293-4-1BB, 4-1BB-Jurkat, GloResponse NFκB-luc2/4-1BB Jurkat) (UniProt Q07011) (Q07011 24-255 limits assumed): as the sequence (Q07011 24-255 limits assumed) above

## urelumab (BMUR) anti-4-1BB monoclonal antibody
Human 4-1BB-His protein
  EC50 (read off the curve): 0.6 nM
[1]
  EC50 (read off the curve): 0.06 nM

B1: 1A10 anti-4-1BB monoclonal antibody (antibody, V domains shown)
VH: EVQLLESGGGLVQPGGSLRLSCAASGFTFSSYDMSWVRQAPGKGLEWVSWISYSGGSIYYADSVKGRFTISRDNSKNTLYLQMNSLRAEDTAVYYCARDAQRNSMREFDYWGQGTLVTVSS
VL: QSVLTQPPSASGTPGQRVTISCSGSSSNIGNNYVTWYQQLPGTAPKLLIYADSHRPSGVPDRFSGSKSGTSASLAISGLRSEDEADYYCATWDYSLSGYVFGGGTKLTVL
Human 4-1BB-His protein
  EC50 (read off the curve): ~0.5 nM
[2]
  EC50 (read off the curve): ~0.2 nM

B2: 41B01.02 anti-4-1BB antibody (antibody, V domains shown)
VH: EVQLLESGGGLVQPGGSLRLSCAASGFTFSSYDMSWVRQAPGKGLEWVSWISYSGGSIYYADSVKGRFTISRDNSKNTLYLQMNSLRAEDTAVYYCARDAQRQSMREFDYWGQGTLVTVSS
VL: QSVLTQPPSASGTPGRRVTISCSGSSSNIGNNYVTWYQQLPGTAPKLLIYADSHRPSGVPDRFSGSKSGTSASLAISGLRSEDEADYYCATWDYSLSGYVFGGGTKLTVL
notes: Full human anti-4-1BB antibody
Human 4-1BB-Fc protein
  binding result: binds

B3: 72C1B6A3 anti-CLDN18.2 monoclonal antibody (antibody, V domains shown)
VH: QVQLVQSGAEVKKPGASVKVSCKASGYTFTTYPIEWVRQAPGQRLEWMGNFHPYNDDTKYNEKFKGRVTITRDTSASTAYMELSSLRSEDTAVYYCARRAYGYPYAMDYWGQGTLVTVSS
VL: DIVMTQSPDSLAVSLGERATINCKSSQSLLNAGNQKNYLTWYQQKPGQPPKLLIYRASSRESGVPDRFSGSGSGTDFTLTISSLQAEDVAVYYCQNDYIYPYTFGGGTKLEIK
notes: also called CLDN18.2 mAb 72C1B6A3
[3]
  binding result: no binding (tested: 100 nM)

— patent US20220348675A1 (I MAB BIOPHARMA US, published 2022)
